# Experimental data: patent US7432242B2, “Inhibitors of RGS proteins” (The Regents of the University of Michigan, priority 2002, dated 2008)
# Where a SMILES comes first, the peptide text is derived from it. Bridges are numbered along the chain shown (N, C = ends). Where no end group is shown, it is not given here.
# Molecular target: RGS4 (Homo sapiens, UniProt P49798)
# Test: Steady-state GTPase assay, RGS4-stimulated, CHO cell membranes expressing α2a AR
# Type: biochemical
# Design: key to Activity (inhibitory activity, relative scale): −: —(no inhibition); relative scale from—(no inhibition) to +++
# Settings: RGS-stimulated GTPase activity
# Protocol: (§1) In some embodiments, the membrane assay comprises a GTPase assay (See e.g, Berman et al., J. Biol. Chem., 271:27209 [1996] and Berman et al., Cell 86:445 [1996]). In such embodiments, α2A adrenergic receptor expressing membranes are pre-incubated with γ-^32P GTP and RGS proteins. In some embodiments, membranes contain both α2A adrenergic receptor and Gαo subunits, allowing measurement of both Gi and Go-coupled RGS proteins. In some embodiments, a steady-state GTPase assay is utilized to assay RGS inhibitors (See e.g., Wise and Milligan, J. Biol. Chem., 272:24673 [1997]).
# This example describes a novel method of assaying for inhibitors of RGS-mediated GTPase Acceleration. A modified version of the [^35S] GTPγS binding method described in Wieland et al., 1994 (Wieland et al., Methods Enzymol. 237:3 [1994]) was utilized, with the exception that an RGS protein was included to enhance the receptor stimulation of GTPγS binding. RGS-mediated enhancement of receptor-stimulated [^35S]GTPγS binding was determined in CHO cell membranes expressing high densities (10-20 pmol/mg) of receptor. The method is not limited to the alpha 2a adrenergic receptor or the CHO membrane described herein. The membrane can be from other cell types and/or expressing other G protein coupled receptors (e.g., including, but not limited to, other Gi coupled receptors).
# The assay buffer was 50 mM Tris, 5 mM MgCl2, 1 mM EDTA, 100 mM NaCl, 1 mM DTT, pH 7.6. The reaction mixture also contained the following components. Some preferred embodiments include at least one of the components marked with an *. • 1. High nanomolar or low micromolar concentrations (typically 1 μM) of GDP.* • 2. 4 μg of Chinese hamster ovary (CHO) membranes expressing the alpha 2a adrenergic receptor (α2AAR) at a receptor density of ˜10-20 pmol/mg. α2AAR-CHO membranes were prepared as previously described (Wade et al., Mol. Pharmacol. 56: 1005 [1999]). Membranes were re-suspended in Tris/MgCl2/EGTA (TME) buffer (50 mM Tris, 10 mM MgCl2, 1 mM EGTA, pH 7.6) and were aliquoted before being frozen in liquid N2 and stored at −80° C. until use. The receptor density in the α2aAR-CHO membranes was determined by [^3H] yohimbine binding and Bradford assay (Bradford, Anal. Biochem. 72: 248 [1976]). • 3. 0.2 nM-50 nM [^35S]GTPγS. A low concentration with respect to the higher concentrations of G protein and GTP utilized is necessary*. • 4. Saturating concentration of agonist for the receptor type utilized. UK 14,304 (10 μM). • 5. RGS proteins at μM or high nM ranges. • 6. GTP at high nM or low μM ranges. This is the most critical component of this method, since the massive GTP hydrolysis accelerated by RGS promotes formation of the empty DRG state which is detected by the low concentration of [^35S]GTPγS.*
# Activity was measured by use of CHO cell membranes expressing the α2a AR at high levels (10-20 pmol/mg) described in Example 1 above.
# Subsequently, a series of constrained peptides (Table 3) was prepared and the inhibitory activity tested. The inhibitory activity is shown in Table 3 as a relative scale from—(no inhibition) to +++.
# RGS4, sequence (P49798 whole entry, species assumed): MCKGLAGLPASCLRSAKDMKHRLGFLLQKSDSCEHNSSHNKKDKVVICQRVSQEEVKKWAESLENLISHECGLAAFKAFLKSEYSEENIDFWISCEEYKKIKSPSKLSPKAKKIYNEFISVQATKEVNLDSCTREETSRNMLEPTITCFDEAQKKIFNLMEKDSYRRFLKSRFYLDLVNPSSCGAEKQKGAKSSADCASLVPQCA
row,Molecule,Inhibition of RGS-mediated GTPase acceleration (in words)
1,VKTTGIVE,no activity

# Same assay, conditions: inhibition of RGS4-mediated GTPase acceleration
row,Molecule,"Activity (inhibitory activity, relative scale)"
1,JO1(Et) (VKCTGICE; cysteine pairing not given here; also: Et modification),−
2,"YJ4(Et) (VKCTSICE; bridge 3-7; also: Et modification, place not given here, cross-link 3-7: disulfide, thioether or lactam)",+++
3,"YJ15(Et) (VKCTGICE; bridge 3-7; also: Et modification, place not given here, cross-link 3-7: disulfide, thioether or lactam)",−
4,ES2(Et) (VKCTGFCE; cysteine pairing not given here; also: Et modification),+++
5,"YJ6(Et) (VKCTSICE; bridge 3-7; also: Et modification, place not given here, cross-link 3-7: disulfide, thioether or lactam)",−
6,YJ5(Et) (KCTSICE; cysteine pairing not given here; also: Et modification),−

# Same assay, conditions: steady-state membrane GTPase assay
row,Molecule,IC50 [µM]
1,"CC[C@H](C)[C@@H]1NC(=O)CNC(=O)[C@H]([C@@H](C)O)NC(=O)[C@@H](NC(=O)[C@H](CCCCN)NC(=O)[C@@H](NC(C)=O)C(C)C)CSCCSC[C@@H](C(=O)N[C@@H](CCC(=O)O)C(N)=O)NC1=O [JMRAc(Et)] (HELM PEPTIDE1{[ac].V.K.C.T.G.I.C.E.[am]}|CHEM1{[C(C[*:2])[*:1]]}$PEPTIDE1,CHEM1,4:R3-1:R1|PEPTIDE1,CHEM1,8:R3-1:R2$$$V2.0)",88
2,"CC[C@H](C)[C@@H]1NC(=O)CNC(=O)[C@H]([C@@H](C)O)NC(=O)[C@@H](NC(=O)[C@H](CCCCN)NC(=O)[C@@H](NC(C)=O)C(C)C)CCC(=O)NCCCC[C@@H](C(=O)N[C@@H](CCC(=O)O)C(N)=O)NC1=O [YJ14(lactam)] (HELM PEPTIDE1{[ac].V.K.E.T.G.I.K.E.[am]}$PEPTIDE1,PEPTIDE1,4:R3-8:R3$$$V2.0)",260
3,"CC[C@H](C)[C@@H]1NC(=O)CNC(=O)[C@H]([C@@H](C)O)NC(=O)[C@@H](NC(=O)[C@H](CCCCN)NC(=O)[C@@H](NC(C)=O)C(C)C)CSCSC[C@@H](C(=O)N[C@@H](CCC(=O)O)C(N)=O)NC1=O [Yja] (HELM PEPTIDE1{[ac].V.K.C.T.G.I.C.E.[am]}|CHEM1{[C([*:1])[*:2]]}$PEPTIDE1,CHEM1,4:R3-1:R1|PEPTIDE1,CHEM1,8:R3-1:R2$$$V2.0)",79
4,"CC[C@H](C)[C@@H]1NC(=O)CNC(=O)[C@H]([C@@H](C)O)NC(=O)[C@@H](NC(=O)[C@H](CCCCN)NC(=O)[C@@H](NC(C)=O)C(C)C)CSSC[C@@H](C(=O)N[C@@H](CCC(=O)O)C(N)=O)NC1=O [Yjb] (HELM PEPTIDE1{[ac].V.K.C.T.G.I.C.E.[am]}$PEPTIDE1,PEPTIDE1,4:R3-8:R3$$$V2.0)",26
5,"CC[C@H](C)[C@@H]1NC(=O)CNC(=O)[C@H]([C@@H](C)O)NC(=O)[C@@H](NC(=O)[C@H](CCCCN)NC(=O)[C@@H](NC(C)=O)C(C)C)CCCNC(=O)CC[C@@H](C(=O)N[C@@H](CCC(=O)O)C(N)=O)NC1=O [YJ13(lactam)] (HELM PEPTIDE1{[ac].V.K.[Orn].T.G.I.E.E.[am]}$PEPTIDE1,PEPTIDE1,4:R3-8:R3$$$V2.0)",25

# Molecular target: T1, RGS8 (Homo sapiens, UniProt P57771)
# T1 sequence (P57771 1-180): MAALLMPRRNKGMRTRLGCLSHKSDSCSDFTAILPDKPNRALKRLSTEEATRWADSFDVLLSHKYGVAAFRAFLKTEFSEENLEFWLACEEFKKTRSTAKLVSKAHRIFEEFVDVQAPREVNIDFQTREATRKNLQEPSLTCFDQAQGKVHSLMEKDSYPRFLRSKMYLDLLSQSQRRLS
# Test: Steady-state membrane GTPase assay, RGS8-stimulated
# Type: biochemical
# Settings: not given
# Protocol: as §1
# In addition to the inhibitory activity against RGS4 mediated GTPase acceleration, three of the peptides found to be most inhibitory against RGS4 were tested for their ability to inhibit RGS8 stimulated GTPase activity.
row,Molecule,IC50 [µM]
1,"CC[C@H](C)[C@@H]1NC(=O)CNC(=O)[C@H]([C@@H](C)O)NC(=O)[C@@H](NC(=O)[C@H](CCCCN)NC(=O)[C@@H](NC(C)=O)C(C)C)CCC(=O)NCCCC[C@@H](C(=O)N[C@@H](CCC(=O)O)C(N)=O)NC1=O [YJ14(lactam)] (HELM PEPTIDE1{[ac].V.K.E.T.G.I.K.E.[am]}$PEPTIDE1,PEPTIDE1,4:R3-8:R3$$$V2.0)",840
2,"CC[C@H](C)[C@@H]1NC(=O)CNC(=O)[C@H]([C@@H](C)O)NC(=O)[C@@H](NC(=O)[C@H](CCCCN)NC(=O)[C@@H](NC(C)=O)C(C)C)CCCNC(=O)CC[C@@H](C(=O)N[C@@H](CCC(=O)O)C(N)=O)NC1=O [YJ13(lactam)] (HELM PEPTIDE1{[ac].V.K.[Orn].T.G.I.E.E.[am]}$PEPTIDE1,PEPTIDE1,4:R3-8:R3$$$V2.0)",161
